According to patent US20060058231A1:
Changes are numbered by the printed parent chain.

B1: 492 (ligand)
BMP-7 mature domain: STGGKQRSQNRSKTPKNQEALRMASVAENSSSDQRQACKKHELYVSFRDLGWQDWIIAPEGYAANYCEGECAFPLNSHMNATNHAIVQTLVHFINPETVPKPCCAPTQLNAISVLYFDDSSNVILKKYRNMVVRACGCH
B2: 471 (ligand)
BMP-7 mature domain: B1 BMP-7 mature domain with K39S, N65Y, H78Y, N130D

Target: anti-BMP-7 antibodies of the commercial ELISA (R&D Systems ELISA Duoset Cat#DY354)
Assay: sandwich ELISA (R&D Systems BMP7 ELISA Cat#DY354), BMP-7 protein titrated, % ELISA signal; the EC50 column carries no unit, the concentration axis is in ug/mL

Row | Binder | EC50 [ng/mL]
1 | B1 | 1.74
2 | B2 | 0.755
